These results are taken from patent US20240092892A1 (BIO THERA SOLUTIONS, published 2024).

Changes are numbered by the printed parent chain. In names and notes the source's numbering stands.

For one test, the target named is T1, human CLDN18.1 (human, UniProt P56856 1-261).
T1 construct: also called CHO-CLDN18.1 cells
Briefly: flow cytometry on CHO-CLDN18.1 cells. The protocol: Flow cytometry was used to detect the binding capacity of anti-CLDN18.2 antibodies to cells expressing CLDN18.2, and the specificity of not binding to CLDN18.1 of the antibody was further detected. The experimental procedure overview was as follows: CLDN18.2 positive cells (KATOIII or CHO-CLDN18.2) and negative cells (CHO-CLDN18.1) were collected, washed once with PBS, resuspended in PBS, and plated on a 96-well V-bottom plate (Cat. No. 3897, Costar) at 0.1 million cells/50 μL/well. The antibody was pre-diluted to 333.2 nM with PBS, then diluted 2-fold with 9 gradients, added at 50 μL/well to the cells in the 96-well V-bottom plate described above, and mixed well (final antibody concentrations: 166.6, 83.3, 41.6, 20.8, 10.4, 5.2, 2.6, 1.3, 0.65, and 0.325 nM). The mixture was incubated at 4° C. for 1 h and washed twice with PBS. Then 100 μL of 1:500 diluted goat anti-human IgG-Fc PE fluorescent secondary antibody (Cat. No. 12-4998-82, eBioscience) was added. The mixture was incubated at 4° C. for 1 h, washed twice with PBS, and analyzed with a CytoFLEX flow cytometer (model: AOO-1-1102, Beckman). [0192]
In general terms: In flow cytometry, cells or beads pass a laser one at a time.

In a further test the target is human CLDN18.2 (human). The test is described as follows: cell-based or functional assay.

T1 sequence (P56856 whole entry): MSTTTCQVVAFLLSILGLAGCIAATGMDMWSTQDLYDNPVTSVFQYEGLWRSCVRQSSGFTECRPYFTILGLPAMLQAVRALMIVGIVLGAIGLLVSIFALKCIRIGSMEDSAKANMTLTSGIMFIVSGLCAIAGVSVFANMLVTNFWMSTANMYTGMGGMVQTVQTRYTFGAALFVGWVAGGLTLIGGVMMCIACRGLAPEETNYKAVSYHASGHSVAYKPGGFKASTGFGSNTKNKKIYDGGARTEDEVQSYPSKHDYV

B1: H239H-2a-K-6a (antibody, human IgG1, kappa, V domains shown)
VH: EVQLLESGGGLVQPGGSLRLSCAASGFTFSDYGMHWVRQAPGKGLEWVAYISRGRSTTYSTDTVKGRFTISRDSSKNTLYLQMNSLRAEDTAVYYCARGSYYGNAMDYWGQGTLVTVSS
VL: DIVMTQSPDSLAVSLGERATINCKSSQSLLNSGNQRNYLTWYQQKPGQPPKLLIYWASTRESGVPDRFSGSGSGTDFTLTISSLQAEDVAVYYCQSAYSYPFTFGGGTKLEIKR
notes: Humanized antibody derived from CH239H-2-K-6, human IgG1/kappa constant regions; also called H239H-2a-K-6α
In the case of B1, the binding result with human CLDN18.1 was “no binding”.

B2: H239H-2b-K-6a (antibody, human IgG1, kappa, V domains shown)
VH: B1 VH with S74N
VL: B1 VL
notes: Humanized antibody derived from CH239H-2-K-6, human IgG1/kappa constant regions; also called H239H-2b-K-6α
As to B2, in the test with human CLDN18.2, the “ADCC Reporter Bioassay (Jurkat-NFAT-luc-FcγRIIIa effector cells, luciferase) EC50” value turned out to be 0.0625 nM and the “CDC cell killing rate (CCK-8, 5% human serum complement) IC50” value was found to be 0.291 nM. Further, in the test with human CLDN18.1, the binding result is given as “no binding”.

B3: IMAB362 (antibody, V domains shown)
VH: QVQLQQPGAELVRPGASVKLSCKASGYTFTSYWINWVKQRPGQGLEWIGNIYPSDSYTNYNQKFKDKATLTVDKSSSTAYMQLSSPTSEDSAVYYCTRSWRGNSFDYWGQGTTLTVSS
VL: DIVMTQSPSSLTVTAGEKVTMSCKSSQSLLNSGNQKNYLTWYQQKPGQPPKLLIYWASTRESGVPDRFTGSGSGTDFTLTISSVQAEDLAVYYCQNDYSYPFTFGSGTKLEIKR
As for B3, in the test with human CLDN18.2, the “ADCC Reporter Bioassay (Jurkat-NFAT-luc-FcγRIIIa effector cells, luciferase) EC50” value is 0.795 nM and the “CDC cell killing rate (CCK-8, 5% human serum complement) IC50” value was determined as 5.87 nM.
